Laboratory results as given in PMC6982540.

Target: His-PTP1B (residues 1–321), reversibly oxidized and phosphorylated on Ser50 (UniProt P18031)
Assay: SPR

Chain of UniProt P18031 (P18031 1-321): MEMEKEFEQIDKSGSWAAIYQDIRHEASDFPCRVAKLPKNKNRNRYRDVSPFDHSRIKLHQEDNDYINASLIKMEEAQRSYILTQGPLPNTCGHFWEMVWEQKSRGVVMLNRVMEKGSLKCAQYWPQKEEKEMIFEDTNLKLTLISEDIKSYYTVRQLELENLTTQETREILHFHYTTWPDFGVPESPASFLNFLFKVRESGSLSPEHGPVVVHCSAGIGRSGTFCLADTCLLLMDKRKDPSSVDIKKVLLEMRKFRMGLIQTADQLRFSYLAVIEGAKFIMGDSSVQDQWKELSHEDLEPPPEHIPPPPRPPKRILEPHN

- koff: 0.00458 s⁻¹
Substance: GST-14-3-3-ζ (from UniProt P63104 1-245) (natural protein)
